This note sets out measurements from paper PMC2858980.

Experiment [1] concerns the target IL-8(1–66) monomer. As to the kind of experiment: NMR titration.
Experiment [2] concerns the target IL-8(1–72) R26C trapped dimer. The experiment is described as follows: NMR titration.

B1: CXCR1 N-domain 24-mer (peptide)
peptide: LWTWFEDEFANATGMPPVEKDYSP
For B1, the Kd in experiment [1] stood at 10 µM; in experiment [2], 340 µM.
